Experimental data as given in publication doi:10.1101/2020.10.22.351346.
Each block holds one substance with its values, some of them ahead of it.

Columns and labels:
[1] = target: microtubules of pig brain tubulin, taxol-stabilised, surface-immobilised (pig) (UniProt P02550)
[2] = target: microtubules of pig brain tubulin, taxol-stabilised, surface-immobilised (pig) (UniProt P02550); test: TIRF fluorescence imaging of labelled MAP on surface-immobilised MTs

Chain of full-length human MAP7 (Q14244 whole entry): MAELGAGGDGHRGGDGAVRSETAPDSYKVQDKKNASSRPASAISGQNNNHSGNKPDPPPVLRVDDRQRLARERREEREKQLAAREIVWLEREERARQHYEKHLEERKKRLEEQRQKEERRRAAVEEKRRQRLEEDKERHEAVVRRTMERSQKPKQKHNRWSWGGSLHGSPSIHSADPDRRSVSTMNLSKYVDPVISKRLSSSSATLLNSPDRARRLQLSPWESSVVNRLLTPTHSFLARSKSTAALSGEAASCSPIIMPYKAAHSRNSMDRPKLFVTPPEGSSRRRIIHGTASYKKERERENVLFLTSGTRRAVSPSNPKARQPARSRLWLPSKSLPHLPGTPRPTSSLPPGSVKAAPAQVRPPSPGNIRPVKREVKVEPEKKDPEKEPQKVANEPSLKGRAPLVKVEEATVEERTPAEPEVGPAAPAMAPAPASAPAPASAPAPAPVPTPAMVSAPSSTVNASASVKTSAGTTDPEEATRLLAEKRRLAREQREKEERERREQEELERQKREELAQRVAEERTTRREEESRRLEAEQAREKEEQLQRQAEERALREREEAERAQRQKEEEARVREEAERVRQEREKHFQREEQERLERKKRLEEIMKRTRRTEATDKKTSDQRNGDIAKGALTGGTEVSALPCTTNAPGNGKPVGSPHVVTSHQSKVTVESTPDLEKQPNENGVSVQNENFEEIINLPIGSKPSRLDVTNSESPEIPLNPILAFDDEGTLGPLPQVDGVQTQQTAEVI
Chain of Tau-MTBD (amino acids 242-367) (P10636 559-684): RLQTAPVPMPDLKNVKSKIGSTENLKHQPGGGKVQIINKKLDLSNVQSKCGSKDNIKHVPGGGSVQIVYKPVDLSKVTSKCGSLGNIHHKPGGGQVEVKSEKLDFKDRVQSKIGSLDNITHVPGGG
Chain of MAP7-N (amino acids 1-316) (Q14244 1-316): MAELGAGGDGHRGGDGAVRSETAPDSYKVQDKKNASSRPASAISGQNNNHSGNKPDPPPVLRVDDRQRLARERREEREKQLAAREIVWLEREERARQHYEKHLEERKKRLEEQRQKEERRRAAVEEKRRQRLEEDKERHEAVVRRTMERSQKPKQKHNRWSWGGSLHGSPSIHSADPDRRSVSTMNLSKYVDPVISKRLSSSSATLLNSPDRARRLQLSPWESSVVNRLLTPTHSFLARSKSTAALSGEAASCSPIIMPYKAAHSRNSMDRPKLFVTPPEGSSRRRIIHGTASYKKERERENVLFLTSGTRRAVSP

IC50 of the run frequency of K560 on MTs against the concentration of MAP7-N [1]: 17.6 nM
Substance: MAP7-N (amino acids 1-316) (from UniProt Q14244-1 1-316) (domain or fragment)

Substance: Tau-MTBD (amino acids 242-367) (from UniProt P10636-8 242-367) (domain or fragment)
fold lower affinity than FL tau [2]: 100 fold

IC50 [2]: 270 nM
Kd [2]: 111 nM
Substance: full-length human MAP7 (from UniProt Q14244-1 1-749) (natural protein)
